Data published in US20180037644A1 (Pfizer, published 2018).
Where two headings read alike, the source gives them in different places. One block for each binder: values may come before it.

Legend:
Assay in all cases: cell-based or functional assay
[1] = target: T1, cynomolgus monkey IL-33 (cys mut) (cynomolgus monkey)
T1 chain: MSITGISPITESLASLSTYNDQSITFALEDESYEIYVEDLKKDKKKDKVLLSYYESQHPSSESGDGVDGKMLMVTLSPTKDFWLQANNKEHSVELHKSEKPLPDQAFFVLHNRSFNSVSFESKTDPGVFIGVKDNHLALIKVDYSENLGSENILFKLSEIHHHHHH

human IL-33 (mm2) [2] = target: T2, human IL-33 (mm2) (human, UniProt O95760 112-270)
T2 chain: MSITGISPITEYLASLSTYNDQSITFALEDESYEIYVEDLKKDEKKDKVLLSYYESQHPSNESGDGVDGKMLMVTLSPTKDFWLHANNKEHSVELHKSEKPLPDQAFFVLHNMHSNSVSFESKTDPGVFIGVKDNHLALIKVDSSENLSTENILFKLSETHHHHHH

human IL-33 WT (R&D) [3] = target: T3, human IL-33 WT (R&D) (human, UniProt O95760 112-270)
T3 sequence: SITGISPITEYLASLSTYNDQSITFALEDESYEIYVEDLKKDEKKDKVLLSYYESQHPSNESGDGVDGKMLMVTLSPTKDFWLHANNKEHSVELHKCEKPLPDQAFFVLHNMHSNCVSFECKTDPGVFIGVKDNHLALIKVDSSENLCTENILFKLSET

[4] = target: T1, cynomolgus monkey IL-33 (cys mut)
human IL-33 (mm2) [5] = target: T2, human IL-33 (mm2)
[6] = target: T4, wild-type cynomolgus monkey IL-33 (cynomolgus monkey)
T4 chain: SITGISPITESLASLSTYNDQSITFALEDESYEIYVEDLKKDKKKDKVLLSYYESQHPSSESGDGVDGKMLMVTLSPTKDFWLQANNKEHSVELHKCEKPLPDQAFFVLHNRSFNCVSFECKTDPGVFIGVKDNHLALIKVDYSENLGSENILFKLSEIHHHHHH

human IL-33 WT (R&D) [7] = target: T3, human IL-33 WT (R&D); remark: listed apart in the source
[8] = target: T1, cynomolgus monkey IL-33 (cys mut)
human IL-33 (mm2) [9] = target: T2, human IL-33 (mm2)
human IL-33 WT (R&D) [10] = target: T3, human IL-33 WT (R&D); remark: listed apart in the source
human IL-33 (mm2) [11] = target: T2, human IL-33 (mm2)
human IL-33 WT (R&D) [12] = target: T3, human IL-33 WT (R&D); remark: listed apart in the source
[13] = target: T1, cynomolgus monkey IL-33 (cys mut)
human IL-33 (mm2) [14] = target: T2, human IL-33 (mm2)
human IL-33 (mm2) [15] = target: T2, human IL-33 (mm2)
[16] = target: T1, cynomolgus monkey IL-33 (cys mut)
human IL-33 (mm2) [17] = target: T2, human IL-33 (mm2)
[18] = target: T4, wild-type cynomolgus monkey IL-33
human IL-33 WT (R&D) [19] = target: T3, human IL-33 WT (R&D); remark: listed apart in the source
[20] = target: T1, cynomolgus monkey IL-33 (cys mut)
human IL-33 (mm2) [21] = target: T2, human IL-33 (mm2)

IC50, HEK293 ST2 NFkB [1]: 0.132 nM | IC50, HEK293 ST2 NFkB (human IL-33 (mm2) [2]): 0.017 nM | IC50, HEK293 ST2 NFkB WT IL-33 (human IL-33 WT (R&D) [3]): 0.117 nM | IC50, HEK293 ST2 NFkB cyno IL-33 [4]: 0.059 nM | IC50, HEK293 ST2 NFkB mm2 (human IL-33 (mm2) [5]): 0.031 nM | IC50, whole blood IFNγ (human IL-33 (mm2) [5]): 0.121 nM
B1: IL33-10 (antibody, human IgG1, kappa)
heavy: not shown
light: DIQMTQSPSSLSASVGDRVTITCKASQNINKHLDWYQQKPGKAPKLLIYFTNNLQTGVPSRFSGSGSGTDFTLTISSLQPEDFATYYCFQYNNGWTFGGGTKVEIKRTVAAPSVFIFPPSDEQLKSGTASVVCLLNNFYPREAKVQWKVDNALQSGNSQESVTEQDSKDSTYSLSSTLTLSKADYEKHKVYACEVTHQGLSSPVTKSFNRGEC

Cynomolgus monkey:human IC50 ratio: wild-type IL-33 [6]: 6.2 | IC50, HEK293 ST2 NFkB (DTT-pretreated IL-33) [6]: 1.56 nM | IC50, HEK293 ST2 NFkB (DTT-pretreated IL-33) (human IL-33 WT (R&D) [7]): 0.25 nM | Cynomolgus monkey:human IC50 ratio: cysteine mutant IL-33 [8]: 1 | IC50, HEK293 ST2 NFkB [8]: 0.036 nM | IC50, HEK293 ST2 NFkB (human IL-33 (mm2) [9]): 0.037 nM | IC50, human whole blood (human IL-33 WT (R&D) [10]): 0.451 nM | IC50, human whole blood (human IL-33 (mm2) [11]): 0.013 nM | IC50, HEK293 ST2 NFkB (human IL-33 WT (R&D) [12]): 0.685 nM | IC50, HEK293 ST2 NFkB [13]: 0.162 nM | IC50, HEK293 ST2 NFkB (human IL-33 (mm2) [14]): 0.13 nM | IC50, IFN-γ production in human PBMC (human IL-33 (mm2) [15]): 1.1 pM
B2: IL33-167LS (antibody, human IgG1, kappa)
heavy: EVQLVESGGGLVQPGGSLRLSCAASGFTFSSYWMYWVRQAPGKGLEWVASITPNAGEDYYPDSVKGRFTISRDNAKNSLYLQMNSLRAEDTAVYYCARGHYYYTSYSLGYWGQGTLVTVSSASTKGPSVFPLAPSSKSTSGGTAALGCLVKDYFPEPVTVSWNSGALTSGVHTFPAVLQSSGLYSLSSVVTVPSSSLGTQTYICNVNHKPSNTKVDKKVEPKSCDKTHTCPPCPAPEAAGAPSVFLFPPKPKDTLMISRTPEVTCVVVDVSHEDPEVKFNWYVDGVEVHNAKTKPREEQYNSTYRVVSVLTVLHQDWLNGKEYKCKVSNKALPAPIEKTISKAKGQPREPQVYTLPPSREEMTKNQVSLTCLVKGFYPSDIAVEWESNGQPENNYKTTPPVLDSDGSFFLYSKLTVDKSRWQQGNVFSCSVLHEALHSHYTQKSLSLSPG
light: DIQMTQSPSSLSASVGDRVTITCKASQNINKHLDWYQQKPGKAPKLLIYFTNNLQTGVPSRFSGSGSGTDFTLTISSLQPEDFATYYCFQYNNGWTFGGGTKVEIKRTVAAPSVFIFPPSDEQLKSGTASVVCLLNNFYPREAKVQWKVDNALQSGNSQESVTEQDSKDSTYSLSSTLTLSKADYEKHKVYACEVTHQGLSSPVTKSFNRGEC

IC50, HEK293 ST2 NFkB [16]: 0.943 nM | IC50, HEK293 ST2 NFkB (human IL-33 (mm2) [17]): 0.14 nM | IC50, HEK293 ST2 NFkB [1]: 3.46 nM | IC50, HEK293 ST2 NFkB (human IL-33 (mm2) [2]): 0.144 nM
B3: IL33-12 (antibody, human IgG1, kappa, V domains shown)
VH: EVQLVESGGGLVQPGGSLRLSCAASGFTFSSYWMYWVRQAPGKGLEWVASINNDGGNTYYLDSVKGRFTISRDNAKNSLYLQMNSLRAEDTAVYYCARGHYYYTSYSLGYWGQGTLVTVSS
VL: DIQMTQSPSSLSASVGDRVTITCKASQNINKHLDWYQQKPGKAPKLLIYFTNNLQTGVPSRFSGSGSGTDFTLTISSLQPEDFATYYCFQYNNGWTFGGGTKVEIKR

IC50, HEK293 ST2 NFkB WT IL-33 (human IL-33 WT (R&D) [3]): 0.155 nM | IC50, HEK293 ST2 NFkB cyno IL-33 [4]: 0.052 nM | IC50, whole blood IFNγ (human IL-33 (mm2) [5]): 0.106 nM
B4: IL33-117 (antibody, human IgG1, kappa, V domains shown)
VH: EVQLVESGGGLVQPGGSLRLSCAASGFTFSSYWMYWVRQAPGKGLEWVASITPNGGEDYYPDSVKGRFTISRDNAKNSLYLQMNSLRAEDTAVYYCARGHYYYTSYSLGYWGQGTLVTVSS
VL: DIQMTQSPSSLSASVGDRVTITCKASQNINKHLDWYQQKPGKAPKLLIYFTNNLQTGVPSRFSGSGSGTDFTLTISSLQPEDFATYYCFQYNNGWTFGGGTKVEIKR

IC50, HEK293 ST2 NFkB [16]: 0.535 nM | IC50, HEK293 ST2 NFkB (human IL-33 (mm2) [17]): 0.325 nM
B5: IL33-45 (antibody, human IgG1, kappa, V domains shown)
VH: EVQLVESGGGLVQPGGSLRLSCAASGFTFSSYWMYWVRQAPGKGLEWVASITPDGGNTYYPDSVKGRFTISRDNAKNSLYLQMNSLRAEDTAVYYCARGHYYYTSYSLGYWGQGTLVTVSS
VL: DIQMTQSPSSLSASVGDRVTITCKASQNINKHLDWYQQKPGKAPKLLIYFTNNLQTGVPSRFSGSGSGTDFTLTISSLQPEDFATYYCFQYNNGWTFGGGTKVEIKR

IC50, HEK293 ST2 NFkB WT IL-33 (human IL-33 WT (R&D) [3]): 0.178 nM | IC50, HEK293 ST2 NFkB cyno IL-33 [4]: 0.07 nM | IC50, HEK293 ST2 NFkB mm2 (human IL-33 (mm2) [5]): 0.028 nM | IC50, whole blood IFNγ (human IL-33 (mm2) [5]): 0.104 nM
B6: IL33-103 (antibody, human IgG1, kappa, V domains shown)
VH: EVQLVESGGGLVQPGGSLRLSCAASGFTFSSYWMYWVRQAPGKGLEWVAAITPNGGETYYPDSVKGRFTISRDNAKNSLYLQMNSLRAEDTAVYYCARGHYYYTSYSLGYWGQGTLVTVSS
VL: DIQMTQSPSSLSASVGDRVTITCKASQNINKHLDWYQQKPGKAPKLLIYFTNNLQTGVPSRFSGSGSGTDFTLTISSLQPEDFATYYCFQYNNGWTFGGGTKVEIKR

Cynomolgus monkey:human IC50 ratio: wild-type IL-33 [18]: 5.4 | IC50, HEK293 ST2 NFkB [18]: 0.043 nM | IC50, HEK293 ST2 NFkB (human IL-33 WT (R&D) [19]): 0.008 nM | Cynomolgus monkey:human IC50 ratio: cysteine mutant IL-33 [20]: 1.1 | IC50, HEK293 ST2 NFkB [20]: 0.003 nM | IC50, HEK293 ST2 NFkB (human IL-33 (mm2) [21]): 3 pM
B7: IL33-312 (antibody, human IgG1, lambda, V domains shown)
VH: EVQLLESGGGLVQPGGSLRLSCAASGFTFSSYAMSWVRQAPGKGLEWVSGISAIDQSTYYADSVKGRFTISRDNSKNTLYLQMNSLRAEDTAVYYCARQKFMQLWGGGLRYPFGYWGQGTMVTVSS
VL: SYVLTQPPSVSVSPGQTASITCSGEGMGDKYAAWYQQKPGQSPVLVIYRDTKRPSGIPERFSGSNSGNTATLTISGTQAMDEADYYCGVIQDNTGVFGGGTKLTVLG

Cynomolgus monkey:human IC50 ratio: wild-type IL-33 [18]: 528 | IC50, HEK293 ST2 NFkB [18]: 14.1 nM | IC50, HEK293 ST2 NFkB (human IL-33 WT (R&D) [19]): 0.027 nM | Cynomolgus monkey:human IC50 ratio: cysteine mutant IL-33 [20]: 206 | IC50, HEK293 ST2 NFkB [20]: 1.2 nM | IC50, HEK293 ST2 NFkB (human IL-33 (mm2) [21]): 6 pM
B8: IL33-313 (antibody, human IgG1, lambda, V domains shown)
VH: EVQLLESGGGLVQPGGSLRLSCAASGFTFSSYAMSWVRQAPGKGLEWVSGIADDFTSTYYADPVKGRFTISRDNSKNTLYLQMNSLRAEDTAVYYCARDLWMMNYAGGLRYPFGYWGQGTMVTVSS
VL: SYVLTQPPSVSVSPGQTASITCSGERMGDKYAAWYQQKPGQSPVLVIYRDTKRPSGIPERFSGSNSGNTATLTISGTQAMDEADYYCGVLKQDTGVFGGGTKLTVLG

Cynomolgus monkey:human IC50 ratio: wild-type IL-33 [6]: 27.1 | IC50, HEK293 ST2 NFkB (DTT-pretreated IL-33) [6]: 1.64 nM | IC50, HEK293 ST2 NFkB (DTT-pretreated IL-33) (human IL-33 WT (R&D) [7]): 0.061 nM | Cynomolgus monkey:human IC50 ratio: cysteine mutant IL-33 [8]: 32.5 | IC50, HEK293 ST2 NFkB [8]: 0.59 nM | IC50, HEK293 ST2 NFkB (human IL-33 (mm2) [9]): 0.018 nM | Cynomolgus monkey:human IC50 ratio: wild-type IL-33 [18]: 104 | IC50, HEK293 ST2 NFkB [18]: 2.19 nM | IC50, HEK293 ST2 NFkB (human IL-33 WT (R&D) [19]): 0.021 nM | Cynomolgus monkey:human IC50 ratio: cysteine mutant IL-33 [20]: 29.2 | IC50, HEK293 ST2 NFkB [20]: 0.213 nM | IC50, HEK293 ST2 NFkB (human IL-33 (mm2) [21]): 7 pM
B9: IL33-310 (antibody, human IgG4 S228P, kappa, V domains shown)
VH: EVQLVESGGGLVQPGGSLRLSCAASGFTFSSFSMSWVRQAPGKGLEWVATISGGKTFTDYVDSVKGRFTISRDDSKNTLYLQMNSLRAEDTAVYYCTRANYGNWFFEVWGQGTLVTVSS
VL: EIVLTQSPATLSLSPGERATLSCRASESVAKYGLSLLNWFQQKPGQPPRLLIFAASNRGSGIPARFSGSGSGTDFTLTISSLEPEDFAVYYCQQSKEVPFTFGQGTKVEIKR
